Experimental data taken from PMC6886297.

Legend:
[1] = biological target: YFP‐labeled Bcl‐xl (UniProt Q07817); experiment: FRET or BRET; live-cell FRET two-hybrid assay (E-FRET and 3^3-FRET) in HeLa cells coexpressing CFP-Mff and YFP-Bcl-xl, 50 µM Z-VAD-FMK; cytoplasm of cells with filamentous Mff and Bcl-xl distribution (ROI 1)
[2] = biological target: YFP‐labeled Bcl‐xl (UniProt Q07817); experiment: FRET or BRET; live-cell FRET two-hybrid assay (E-FRET and 3^3-FRET) in HeLa cells coexpressing CFP-Mff and YFP-Bcl-xl, 50 µM Z-VAD-FMK; fragmented mitochondrial region of cells with punctate distribution (ROI 4)
[3] = biological target: YFP‐labeled Bcl‐xl (UniProt Q07817); experiment: FRET or BRET; live-cell FRET two-hybrid assay (E-FRET and 3^3-FRET) in HeLa cells coexpressing CFP-Mff and YFP-Bcl-xl, 50 µM Z-VAD-FMK; cytoplasm of cells with punctate Mff and Bcl-xl distribution (ROI 3)
[4] = biological target: YFP‐labeled Bcl‐xl (UniProt Q07817); experiment: FRET or BRET; live-cell FRET two-hybrid assay (E-FRET and 3^3-FRET) in HeLa cells coexpressing CFP-Mff and YFP-Bcl-xl, 50 µM Z-VAD-FMK; tubular mitochondrial region of cells with filamentous distribution (ROI 2)

Chain of UniProt Q07817 (Q07817 whole entry, the tested form may be a part): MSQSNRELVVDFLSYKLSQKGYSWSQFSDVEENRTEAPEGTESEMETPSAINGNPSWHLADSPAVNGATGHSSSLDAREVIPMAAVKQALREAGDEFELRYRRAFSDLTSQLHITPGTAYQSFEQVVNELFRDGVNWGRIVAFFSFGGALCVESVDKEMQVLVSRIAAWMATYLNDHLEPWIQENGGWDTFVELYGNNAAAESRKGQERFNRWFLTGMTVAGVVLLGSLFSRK

- EA (acceptor-centric FRET efficiency) [1]: 0.151
- ED (donor-centric FRET efficiency) [1]: 0.086
- stoichiometry N [1]: 0.586 Bcl‐xl/Mff
- EA (acceptor-centric FRET efficiency) [2]: 0.115
- ED (donor-centric FRET efficiency) [2]: 0.109
- stoichiometry N [2]: 0.924 Bcl‐xl/Mff
- EA (acceptor-centric FRET efficiency) [3]: 0.072
- ED (donor-centric FRET efficiency) [3]: 0.041
- stoichiometry N [3]: 0.643 Bcl‐xl/Mff
- EA (acceptor-centric FRET efficiency) [4]: 0.071
- ED (donor-centric FRET efficiency) [4]: 0.067
- stoichiometry N [4]: 0.97 Bcl‐xl/Mff
Substance: CFP‐labeled Mff (mitochondrial fission factor) (from UniProt Q9GZY8 1-342) (natural protein)
